# The supplement of paper PMC10567573
# B1: MIA2 (parent)
# chain: DMVSNIELPTRIHEEVYFEPSSSK
# Variants of: B1
# Assay: protein stability index of a GFP-peptide fusion (GPS, HEK-293T) (PSI 1-6); higher = more stable
# Conditions: c terminus: a fixed tail appended
# 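Note: lentivirally expressed fusions sorted by FACS into six bins by GFP to DsRed ratio, PSI derived from sequencing read proportions per bin multiplied by bin number.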
row,Variant,protein stability index
1,DMVSNIELPTRIKEEVYFEPSSSK [H13K],3.64
2,DMVSNIELPTRIREEVYFEPSSSK [H13R],3.8
3,DMVSNIELPTRIGEEVYFEPSSSK [H13G],4.05
4,DMVSNIELPTRIAEEVYFEPSSSK [H13A],4
5,DMVSNIELPTRIDEEVYFEPSSSK [H13D],3.59
6,DMVSNIELPTRIVEEVYFEPSSSK [H13V],3.62
7,DMVSNIELPTRIPEEVYFEPSSSK [H13P],4.32
8,DMVSNIELPTRITEEVYFEPSSSK [H13T],3.02
9,DMVSNIELPTRISEEVYFEPSSSK [H13S],3.33
10,DMVSNIELPTRIIEEVYFEPSSSK [H13I],3.42
11,DMVSNIELPTRIQEEVYFEPSSSK [H13Q],3.84
12,DMVSNIELPTRIYEEVYFEPSSSK [H13Y],3.57
13,DMVSNIELPTRIEEEVYFEPSSSK [H13E],4.44
14,DMVSNIELPTRINEEVYFEPSSSK [H13N],4.19
15,DMVSNIELPTRILEEVYFEPSSSK [H13L],3.99
16,DMVSNIELPTRIWEEVYFEPSSSK [H13W],3.15
17,DMVSNIELPTRIFEEVYFEPSSSK [H13F],3.81
18,DMVSNIELPTRIMEEVYFEPSSSK [H13M],3.02
19,DMVSNIELPTRICEEVYFEPSSSK [H13C],3.37
20,DMVSNIELPTRNHEEVYFEPSSSK [I12N],3.69
21,DMVSNIELPTRMHEEVYFEPSSSK [I12M],3.6
22,DMVSNIELPTRSHEEVYFEPSSSK [I12S],4.51
23,DMVSNIELPTRAHEEVYFEPSSSK [I12A],4.18
24,DMVSNIELPTRCHEEVYFEPSSSK [I12C],3.22

row,Variant,protein stability index
1,DMVSNIELPTRHHEEVYFEPSSSK [I12H],3.42
2,DMVSNIELPTRQHEEVYFEPSSSK [I12Q],4.11
3,DMVSNIELPTREHEEVYFEPSSSK [I12E],4.33
4,DMVSNIELPTRTHEEVYFEPSSSK [I12T],3.98
5,DMVSNIELPTRRHEEVYFEPSSSK [I12R],3.06
6,DMVSNIELPTRKHEEVYFEPSSSK [I12K],3.64
7,DMVSNIELPTRFHEEVYFEPSSSK [I12F],3.57
8,DMVSNIELPTRGHEEVYFEPSSSK [I12G],4.39
9,DMVSNIELPTRPHEEVYFEPSSSK [I12P],3.86
10,DMVSNIELPTRVHEEVYFEPSSSK [I12V],4.25
11,DMVSNIELPTRDHEEVYFEPSSSK [I12D],4.79
12,DMVSNIELPTRYHEEVYFEPSSSK [I12Y],3.87
13,DMVSNIELPTRLHEEVYFEPSSSK [I12L],3.89
14,DMVSNIELPTRWHEEVYFEPSSSK [I12W],3.59
15,DMVSNIELPTSIHEEVYFEPSSSK [R11S],4.07
16,DMVSNIELPTIIHEEVYFEPSSSK [R11I],3.58
17,DMVSNIELPTVIHEEVYFEPSSSK [R11V],4.14
18,DMVSNIELPTWIHEEVYFEPSSSK [R11W],3.52
19,DMVSNIELPTQIHEEVYFEPSSSK [R11Q],4.42
20,DMVSNIELPTCIHEEVYFEPSSSK [R11C],3.62
21,DMVSNIELPTKIHEEVYFEPSSSK [R11K],3.77
22,DMVSNIELPTFIHEEVYFEPSSSK [R11F],3.42
23,DMVSNIELPTDIHEEVYFEPSSSK [R11D],4.49
24,DMVSNIELPTAIHEEVYFEPSSSK [R11A],4.7

row,Variant,protein stability index
1,DMVSNIELPTHIHEEVYFEPSSSK [R11H],3.43
2,DMVSNIELPTNIHEEVYFEPSSSK [R11N],4.39
3,DMVSNIELPTPIHEEVYFEPSSSK [R11P],4.09
4,DMVSNIELPTYIHEEVYFEPSSSK [R11Y],3.26
5,DMVSNIELPTGIHEEVYFEPSSSK [R11G],4.86
6,DMVSNIELPTMIHEEVYFEPSSSK [R11M],4.16
7,DMVSNIELPTLIHEEVYFEPSSSK [R11L],3.94
8,DMVSNIELPTTIHEEVYFEPSSSK [R11T],4.27
9,DMVSNIELPTEIHEEVYFEPSSSK [R11E],4.5
10,DMVSNIELPSRIHEEVYFEPSSSK [T10S],4.13
11,DMVSNIELPQRIHEEVYFEPSSSK [T10Q],4.44
12,DMVSNIELPVRIHEEVYFEPSSSK [T10V],3.65
13,DMVSNIELPYRIHEEVYFEPSSSK [T10Y],3.83
14,DMVSNIELPWRIHEEVYFEPSSSK [T10W],3.27
15,DMVSNIELPRRIHEEVYFEPSSSK [T10R],3.63
16,DMVSNIELPTRIHENVYFEPSSSK [E15N],3.29
17,DMVSNIELPTRIHECVYFEPSSSK [E15C],2.97
18,DMVSNIELPTRIHEIVYFEPSSSK [E15I],2.28
19,DMVSNIELPTRIHEKVYFEPSSSK [E15K],3.52
20,DMVSNIELPTRIHEMVYFEPSSSK [E15M],2.72
21,DMVSNIELPTRIHEGVYFEPSSSK [E15G],3.84
22,DMVSNIELPTRIHERVYFEPSSSK [E15R],2.96
23,DMVSNIELPTRIHEHVYFEPSSSK [E15H],3.63
24,DMVSNIELPTRIHELVYFEPSSSK [E15L],3.27

row,Variant,protein stability index
1,DMVSNIELPTRIHEAVYFEPSSSK [E15A],3.35
2,DMVSNIELPTRIHEFVYFEPSSSK [E15F],2.62
3,DMVSNIELPTRIHEQVYFEPSSSK [E15Q],3.44
4,DMVSNIELPTRIHEDVYFEPSSSK [E15D],4.45
5,DMVSNIELPTRIHEPVYFEPSSSK [E15P],2.96
6,DMVSNIELPTRIHDEVYFEPSSSK [E14D],3.59
7,DMVSNIELPTRIHQEVYFEPSSSK [E14Q],3.43
8,DMVSNIELPTRIHHEVYFEPSSSK [E14H],3.28
9,DMVSNIELPTRIHPEVYFEPSSSK [E14P],3.16
10,DMVSNIELPTRIHMEVYFEPSSSK [E14M],2.58
11,DMVSNIELPTRIHSEVYFEPSSSK [E14S],3.29
12,DMVSNIELPTRIHAEVYFEPSSSK [E14A],3.51
13,DMVSNIELPTRIHGEVYFEPSSSK [E14G],3.28
14,DMVSNIELPTRIHTEVYFEPSSSK [E14T],3.07
15,DMVSNIELPTRIHWEVYFEPSSSK [E14W],2.88
16,DMVSNIELPTRIHYEVYFEPSSSK [E14Y],1.86
17,DMVSNIELPTRIHCEVYFEPSSSK [E14C],1.91
18,DMVSNIELPTRIHKEVYFEPSSSK [E14K],3.36
19,DMVSNIELPTRIHLEVYFEPSSSK [E14L],2.04
20,DMVSNIELPTRIHREVYFEPSSSK [E14R],2.98
21,DMVSNIELPTRIHFEVYFEPSSSK [E14F],2.46
22,DMVSNIELPTRIHNEVYFEPSSSK [E14N],3.82
